Data as given in publication PMC10722681, “RGCC-mediated PLK1 activity drives breast cancer lung metastasis by phosphorylating AMPKα2 to activate oxidative phosphorylation and fatty acid oxidation” (Journal of Experimental & Clinical Cancer Research : CR, 2023).

Biological target: HA-PLK1 (human, UniProt P53350 1-603)
Experiment: cell-based or functional assay

Chain of HA-PLK1 (P53350 whole entry): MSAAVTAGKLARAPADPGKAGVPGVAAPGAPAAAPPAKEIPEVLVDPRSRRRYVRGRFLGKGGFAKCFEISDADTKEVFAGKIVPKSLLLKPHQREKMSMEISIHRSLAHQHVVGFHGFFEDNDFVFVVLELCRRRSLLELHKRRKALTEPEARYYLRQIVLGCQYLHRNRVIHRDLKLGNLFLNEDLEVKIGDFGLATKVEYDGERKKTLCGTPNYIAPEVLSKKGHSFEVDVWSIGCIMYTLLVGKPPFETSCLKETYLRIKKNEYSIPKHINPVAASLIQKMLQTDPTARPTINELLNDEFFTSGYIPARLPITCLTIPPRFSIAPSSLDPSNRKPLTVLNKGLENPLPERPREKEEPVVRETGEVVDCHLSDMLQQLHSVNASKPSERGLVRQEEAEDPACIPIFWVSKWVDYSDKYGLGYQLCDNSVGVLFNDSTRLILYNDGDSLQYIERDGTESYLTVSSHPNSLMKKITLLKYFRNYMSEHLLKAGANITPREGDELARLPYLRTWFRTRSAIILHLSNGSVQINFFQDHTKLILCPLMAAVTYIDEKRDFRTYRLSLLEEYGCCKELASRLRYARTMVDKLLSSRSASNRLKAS

B1: GST-RGCC (natural protein, UniProt Q9H4X1 1-137, looked up)
chain: MKPPAAQGSPAAAAAAAPALDSAAAEDLSDALCEFDAVLADFASPFHERHFHYEEHLERMKRRSSASVSDSSGFSDSESADSLYRNSFSFSDEKLNSPTDSTPALLSATVTPQKAKLGDTKELEAFIADLDKTLASM
  in vitro PLK1 kinase activity (universal kinase activity kit, purified PLK1 with AMPKα2 and ATP); EC50 of RGCC for activation of PLK1: 0.0194 µM
